This is an account of results in article PMC9341007 (Structure (London, England : 1993), 2022).

One may read the Kd as a measure of binding affinity in units of concentration.

This assay has as its target equine ACE2 peptidase domain (horse (Equus caballus), UniProt A0A9L0TPT7 19-615). The assay can be described thus: SPR. For orientation: SPR reads the build-up and loss of mass on a sensor chip optically.

B1: hCoV-NL63 spike receptor-binding domain (domain or fragment)
chain: QHTDINFTATASFGGSCYVCKPHQVNISLNGNTSVCVRTSHFSIRYIYNRVKSGSPGDSSWHIYLKSGTCPFSFSKLNNFQKFKTICFSTVEVPGSCNFPLEATWHYTSYTIVGALYVTWSEGNSITGVPYPVSGI
Molecule B1 had a dissociation constant Kd of 106 nM.
